From patent US5434073

Tests used:
[1] = molecular target: plasminogen (Sigma P-7397)
[2] = molecular target: human thrombin (Sigma) (human) (UniProt P00734)

| Substance | streptokinase activity by the S2251 chromogenic assay [1] [u/ml] | specific activity in anti-thrombin units (inhibition of thrombin catalysed hydrolysis of CHROMOZYM TH) [2] [U/mg] |
| --- | --- | --- |
| thrombin cleavable streptokinase-streptokinase fusion protein | 18400 |  |
| hirudin-IEGR-hirudin fusion protein |  | 588 |
| recombinant hirudin sample |  | 6600 |
